According to PMC7186176, “Structural basis of cell-surface signaling by a conserved sigma regulator in Gram-negative bacteria” (The Journal of Biological Chemistry, 2020):

B1: MBP-tagged PupR CCSSD (PupR residues 110–324) (domain or fragment, Pseudomonas capeferrum, UniProt Q52209 110-324, looked up)
chain: QDWRADYHSRIGEQRRLTLADGTQVQLNTDSALNVAFDQQARRLRLVRGEMLITRPALADSRPLWVDTEHGRLESTLAQFNVRLHGQHTQATVYQGSVALQPALHAYPPILLGAGEQASFNQQGLLARQAVAAVAPAWSQGMLVAQGQPLAAFIEDLARYRRGHLACDPALAGLRVSGTFPLENTDKIIAAVAETLQLEVQHFTRYWVTLKPRMA
notes: PupR, inner membrane sigma regulator of Pseudomonas capeferrum (formerly Pseudomonas putida WCS358), periplasmic CCSSD, residues 110-324; also called complete CCSSD; C-terminal cell-surface signaling domain; source: E. coli BL21(DE3)pLysS, co-expressed with GST-PupB NTSD, clarified lysate (pull-down); not shown: MBP, N-terminal, kept
B2: PupB NTSD (purified) (domain or fragment, Pseudomonas capeferrum, UniProt P38047 49-128, looked up)
chain: AQADFDIPAGPLAPALAHFGQSAHILLSYPTALTEGRSTSGLAGRFDIDQGLAILLAGTGLEASRGANASYSLQASASTG
notes: PupB, outer membrane TonB-dependent transducer of Pseudomonas capeferrum (formerly Pseudomonas putida WCS358), N-terminal signaling domain; also called N-terminal signaling domain of PupB
B3: PupR CCSSD (PupR residues 110–324, MBP cleaved) (domain or fragment, Pseudomonas capeferrum)
chain: GAMGQDWRADYHSRIGEQRRLTLADGTQVQLNTDSALNVAFDQQARRLRLVRGEMLITRPALADSRPLWVDTEHGRLESTLAQFNVRLHGQHTQATVYQGSVALQPALHAYPPILLGAGEQASFNQQGLLARQAVAAVAPAWSQGMLVAQGQPLAAFIEDLARYRRGHLACDPALAGLRVSGTFPLENTDKIIAAVAETLQLEVQHFTRYWVTLKPRMA
notes: 4-residue cloning artifact left after TEV cleavage; PupR, inner membrane sigma regulator of Pseudomonas capeferrum (formerly Pseudomonas putida WCS358), periplasmic CCSSD, residues 110-324; 219-residue product with the GAMG artifact; About 90% pure, some MBP contamination; also called native PupR CCSSD; not shown: MBP, N-terminal, cleaved

Legend:
Conditions in all cases: both partners purified
PupB NTSD (purified) [1] = biological target: B2; assay: ITC; MBP-tagged PupR CCSSD (220-235 μM) titrated into PupB NTSD (27.5-40 μM); 15 °C; 25 mM HEPES pH 7.5, 400 mM LiCl, 10% glycerol; global fit of three runs in SEDPHAT with a local incompetent fraction
PupB NTSD (purified) [2] = biological target: B2; assay: as above; remark: listed apart in the source
[3] = biological target: B1; assay: as above
PupB NTSD (purified) [4] = biological target: B2; assay: SEC-SAXS; inline Superdex 200 Increase 10/300; 25 mM HEPES pH 7.5, 400 mM LiCl, 10% glycerol; 800 μM complex (1:1 mix, 30 min at room temperature) or 400 μM PupR CCSSD alone injected; ambient temperature

## B1
PupB NTSD (purified) [1]
  stoichiometry N: 1
PupB NTSD (purified) [2]
  dH: -17.7 kcal/mol

## B2
[3]
  Kd: 690 nM

## B3
PupB NTSD (purified) [4]
  stoichiometry N: 1
